Source: PMC4197441, “Phosphoinositide 3-kinase p85beta regulates invadopodium formation” (Biology Open, 2014)

Target: T1, focal adhesion kinase (mouse (endogenous in NIH3T3), UniProt P34152 1-1052)
T1 construct: focal adhesion kinase (FAK), endogenous in NIH3T3 fibroblasts, immunoprecipitated with anti-FAK Ab (BD Bioscience); also called FAK; Ptk2; source: endogenous, NIH3T3 cell extract
Test: co-IP; NIH3T3 cell extracts (500 µg, TX-100 lysis buffer) immunoprecipitated with anti-FAK Ab, WB with anti-HA Ab; cells without serum 16 h, then 10% serum (in suspension), FN, or FN plus serum for 20 or 60 min
Conditions: partners not purified

T1 sequence (P34152 whole entry): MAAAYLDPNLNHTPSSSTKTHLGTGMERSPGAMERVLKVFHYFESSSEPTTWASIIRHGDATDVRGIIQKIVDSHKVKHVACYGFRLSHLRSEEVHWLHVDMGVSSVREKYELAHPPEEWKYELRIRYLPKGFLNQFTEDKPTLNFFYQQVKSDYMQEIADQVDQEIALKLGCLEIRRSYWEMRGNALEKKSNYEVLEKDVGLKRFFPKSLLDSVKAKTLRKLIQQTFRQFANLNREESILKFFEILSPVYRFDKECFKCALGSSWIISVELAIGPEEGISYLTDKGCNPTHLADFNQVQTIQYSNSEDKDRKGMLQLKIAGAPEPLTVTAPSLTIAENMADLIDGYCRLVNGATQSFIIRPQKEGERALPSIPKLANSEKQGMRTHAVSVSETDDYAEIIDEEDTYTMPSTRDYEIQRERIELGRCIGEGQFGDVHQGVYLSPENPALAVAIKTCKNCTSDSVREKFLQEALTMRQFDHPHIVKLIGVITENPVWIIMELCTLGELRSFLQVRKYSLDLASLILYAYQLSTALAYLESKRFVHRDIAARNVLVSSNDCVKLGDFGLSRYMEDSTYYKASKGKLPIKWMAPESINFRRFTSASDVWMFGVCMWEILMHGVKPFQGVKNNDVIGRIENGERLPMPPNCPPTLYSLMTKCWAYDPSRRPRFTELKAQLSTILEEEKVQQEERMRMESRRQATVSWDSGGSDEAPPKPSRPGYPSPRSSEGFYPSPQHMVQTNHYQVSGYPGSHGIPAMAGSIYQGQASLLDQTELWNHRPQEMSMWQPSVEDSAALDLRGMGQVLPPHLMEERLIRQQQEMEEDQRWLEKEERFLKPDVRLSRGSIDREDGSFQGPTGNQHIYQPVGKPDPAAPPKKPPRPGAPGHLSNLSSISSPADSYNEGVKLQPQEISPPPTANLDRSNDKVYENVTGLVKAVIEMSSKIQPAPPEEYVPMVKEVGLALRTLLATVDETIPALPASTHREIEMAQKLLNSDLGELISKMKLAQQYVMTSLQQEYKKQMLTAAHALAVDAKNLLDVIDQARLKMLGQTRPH

- fold amount co-precipitated with FAK relative to rHAp85α: 5 fold
B1: recombinant HA-tagged p85β (regulatory subunit of phosphoinositide 3-kinase) (natural protein)
chain: not shown
notes: p85β regulatory subunit of PI3K, murine cDNA (from pT7/T3-U19) subcloned into pSG5; the p85β ATG codon was replaced with a proline residue and the ATG of the HA tag kept; The only change is the first methionine to proline at the junction with the N-terminal HA tag; also called rHAp85β; HA-p85β; source: NIH3T3, transfected (pSG5), in cell extract; not shown: HA, N-terminal, kept
